For one substance, EC50 results are on record in patent US20240327503A1.

The EC50 is the concentration giving half of the maximal effect. The low end stands for greater potency, the high end for weaker potency.

The assay deals with SARS-CoV-2 spike ECD S-2P (SARS-CoV-2) (UniProt P0DTC2).

In the case of CR3022 (antibody), the EC50 is 3.6 nM.
